Test results published in IntAct's records for PubMed 21529711.

B1: Protein nutcracker (Drosophila melanogaster (Fruit fly)), Q8SX86 (parent)
chain: MSDTKSEIEGFIAIPTTSGEQQQQQPQQQQNEQQVVGTKDIKAPDQVGKKQRPRLIQEKSTQETNPLILEHATLEWVPQHMDKLLNQYQECRKMPAAEWLHLLTYLVALECGFVEEETFAQKRHLIQPVPSFSSFHAQNVRILSEQPARYEVCFNDTVYIMRLRTLLDKHAPEETSLVAALQCRLMAVSLGDQLMITLSPAPPSKEPGYSVSLSIGRYVLNIQAKNKPIYHRFRKLDELSYQLKQHLFQPMRSQQLMQMEMKLQPSLLGLPDELYFEIFRYLDKSQLNVVARVNRHLHFYSKEVERKRLKGGRS
partner: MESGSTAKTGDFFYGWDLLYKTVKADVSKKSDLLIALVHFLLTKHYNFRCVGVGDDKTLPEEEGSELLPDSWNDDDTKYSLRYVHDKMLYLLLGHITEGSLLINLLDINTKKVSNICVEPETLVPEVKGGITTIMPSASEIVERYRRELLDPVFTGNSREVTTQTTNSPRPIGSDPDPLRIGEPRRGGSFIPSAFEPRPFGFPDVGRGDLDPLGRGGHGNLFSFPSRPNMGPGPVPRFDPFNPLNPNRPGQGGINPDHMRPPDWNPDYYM

Variants of: B1
Details: with psmf1_drome PI31, Q9V637

effect of a mutation on the interaction | Variant
decreasing interaction | V188E
